± gives the standard error. Variants at the floor of the assay were thinned out.
B1: glmS ribozyme (parent)
chain: AUAAAAGCGCCAGAACUACAGAAAUGUAGUUGACGAGGAGGAGGUUUAUCGAAUUUUCGGCGGAUGCCUCCAAA

Columns and labels:
Conditions in all cases: with glucosamine-6-phosphate
glucosamine-6-phosphate [1] = variants of: B1; assay: self-cleavage kobs at 40 uM GlcN6P; higher = faster cleavage; RNA array
Summary of the method: (§1)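 Glucosamine-6-phosphate (40 μM to 10 mM) in HEPES/KCl/Mg(OAc)2 buffer was flowed over sequenced MiSeq chips, and tiles were imaged over ~14 h. Barcoded ribozyme variants there had been transcribed in situ by E. coli RNA polymerase and were tracked through a hybridised Cy3 probe at 37 °C. One- or two-exponential decay fits to per-tile medians, normalised to baseline and to non-cleaving reference variants, gave kobs. kcat and KM came from weighted Michaelis–Menten fits across concentrations.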

glucosamine-6-phosphate [2] = variants of: B1; assay: self-cleavage kobs at 640 uM GlcN6P; higher = faster cleavage; RNA array
Summary of the method: as §1

glucosamine-6-phosphate [3] = variants of: B1; assay: self-cleavage kobs at 2500 uM GlcN6P; higher = faster cleavage; RNA array
Summary of the method: as §1

glucosamine-6-phosphate [4] = variants of: B1; assay: self-cleavage kobs at 10000 uM GlcN6P; higher = faster cleavage; RNA array
Summary of the method: as §1

glucosamine-6-phosphate [5] = variants of: B1; assay: self-cleavage kobs at 160 uM GlcN6P; higher = faster cleavage; RNA array
Summary of the method: as §1

Row | Variant | self-cleavage kobs at 40 uM GlcN6P (glucosamine-6-phosphate [1]) | self-cleavage kobs at 640 uM GlcN6P (glucosamine-6-phosphate [2]) | self-cleavage kobs at 2500 uM GlcN6P (glucosamine-6-phosphate [3]) | self-cleavage kobs at 10000 uM GlcN6P (glucosamine-6-phosphate [4]) | self-cleavage kobs at 160 uM GlcN6P (glucosamine-6-phosphate [5])
1 | C16G U54G G60A C70A | < 1e-05 s⁻¹ | 0.000647 ± 0.0003 s⁻¹ | 3.79e-05 ± 1.7e-05 s⁻¹ |  | 
2 | A15U G43A G44U G62A | < 1e-05 s⁻¹ |  |  | < 1e-05 s⁻¹ | 
3 | A14U U69C | 0.000126 ± 2.3e-05 s⁻¹ | 0.000362 ± 4.8e-05 s⁻¹ | 0.000501 ± 0.00015 s⁻¹ | 0.00132 ± 0.00026 s⁻¹ | 0.000147 ± 2.2e-05 s⁻¹
4 | A14U U56C | 5.38e-05 ± 1.8e-05 s⁻¹ | 0.000234 ± 4.8e-05 s⁻¹ | 0.000307 ± 7.6e-05 s⁻¹ | 0.00138 ± 0.00027 s⁻¹ | 
5 | C16A G43A | < 1e-05 s⁻¹ |  |  |  | 
6 | C16A G43C | < 1e-05 s⁻¹ | < 1e-05 s⁻¹ |  | < 1e-05 s⁻¹ | 
7 | A15U C50G | 3.42e-05 ± 8.1e-06 s⁻¹ | 0.000494 ± 0.00023 s⁻¹ | 7.94e-05 ± 1.4e-05 s⁻¹ |  | 8.86e-05 ± 1.4e-05 s⁻¹
8 | A15G G62U | < 1e-05 s⁻¹ |  |  | < 1e-05 s⁻¹ | 
9 | A15C C70U | 0.000192 ± 1.8e-05 s⁻¹ | 0.000719 ± 7.7e-05 s⁻¹ | 0.00537 ± 0.0012 s⁻¹ | 0.00871 ± 0.0019 s⁻¹ | 0.000389 ± 4.7e-05 s⁻¹
10 | A15G G38C | < 1e-05 s⁻¹ | < 1e-05 s⁻¹ | < 1e-05 s⁻¹ |  | < 1e-05 s⁻¹
11 | A15C U56G | 6.11e-05 ± 1.3e-05 s⁻¹ | 0.000276 ± 8.7e-05 s⁻¹ | 0.0011 ± 0.00025 s⁻¹ | 0.00228 ± 0.00048 s⁻¹ | 7.19e-05 ± 1.9e-05 s⁻¹
12 | C16A A36C G51A A53U U69G | 6.48e-05 ± 2.5e-05 s⁻¹ |  |  | 4.91e-05 ± 1.6e-05 s⁻¹ | 
13 | A15U U47C C61U | < 1e-05 s⁻¹ |  |  | < 1e-05 s⁻¹ | 
14 | A15C C16G | 5.89e-05 ± 1.4e-05 s⁻¹ | 0.000438 ± 5.6e-05 s⁻¹ |  | 0.00295 ± 0.00045 s⁻¹ | 
15 | A15U A39U U46A | < 1e-05 s⁻¹ |  |  |  | 
16 | C16A G43U C68G C71U | < 1e-05 s⁻¹ |  |  |  | 
17 | C16A A39U G51U | < 1e-05 s⁻¹ |  |  |  | 
18 | C16G A42U | < 1e-05 s⁻¹ |  |  |  | < 1e-05 s⁻¹
19 | C16G A42G | 0.000233 ± 5.6e-05 s⁻¹ | 0.000804 ± 0.0003 s⁻¹ |  | 0.00496 ± 0.001 s⁻¹ | 0.000208 ± 9.6e-05 s⁻¹
20 | A15G A48U U57C | < 1e-05 s⁻¹ |  | < 1e-05 s⁻¹ | < 1e-05 s⁻¹ | < 1e-05 s⁻¹
21 | A15G G63C | < 1e-05 s⁻¹ | < 1e-05 s⁻¹ | < 1e-05 s⁻¹ | < 1e-05 s⁻¹ | < 1e-05 s⁻¹
22 | A15C A33C A64U | < 1e-05 s⁻¹ |  |  | < 1e-05 s⁻¹ | 
23 | C16G U31C U45C | < 1e-05 s⁻¹ |  |  |  | 

Reference: the supplement of paper PMC7125110
